± gives the standard deviation of the averaged measurements.

This series has as its system VchCAST RNA-guided transposition machinery (E. coli BL21(DE3) host, lacZ target). Briefly: relative integration efficiency (T-LR orientation) vs wild-type transposon end (log2 (normalized fold change)); transposon end mutated: right end (5 bp flank + 75 bp right end); higher = more efficient transposition. Put shortly: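 In E. coli BL21(DE3), a T7-driven effector plasmid was paired with a pUC57 mini-transposon donor containing 1549 left-end or 1849 right-end barcoded transposon variants. Cells grew on plates with 0.1 mM IPTG at 37°C for 18 h. Relative integration efficiency was derived from Illumina reads of genomic integration junctions against input plasmids, as a log-transformed output/input barcode fold change normalised to reference barcodes.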
Consider “ACATTTGTTGATACAACCATAAAATCATCATTACCCCCATAAATTGATAATTATCCCACCCCATTTAACTATAACGCTCTGATCATAGTCAGACCAACATTGCTACGACCCGTATTCGCACCGACAC”, for which the “relative integration efficiency (log2)” value is -0.0125 ± 0.058.
As for “ACATTTGTTGATACAACCATAAAATGATAATTACACCCATAAATTGATAATTATCACACCCATAAATTGATATTGCCTCTGATAACTTCGTATAGTATACATTATACGAAGTTATTCGCACCGACAC”, the figure is 2.27 ± 0.2; as for “ACATTTGTTGATACAACCATAAAATGATAATTACTCTGATCATAGTCAGACCAACATTGCTACGACCCCACCCATAAATTGATAATTATCAGTGGGTATTTAACTATAACGGTATTCGCACCGACAC”, -0.154 ± 0.0093.
As for “ACATTGGTTGATACAACCATAAAATGATAATTACACCCATAAATTGATCATTATCACACCCAATTTAACTATAACGCTCTGATCATAGTCAGACCAACATTGCTACGACCCGTATTCGCACCGACAC”, the figure is -6.54 ± 2; as for “ACATTTGTTGATACAACCATAAAATGATAATTACTGCCATAAATTGATAATTATCACACCCATAAATTGATATTGCCTCTGATCATAGTCAGACCAACATTGCTACGACCCGTATTCGCACCGACAC”, -0.602 ± 0.32; as for “ACATTTGTTGATACAACCATTAAATGATAATTCCACCCATATATTGATAATTATCACACCCAATTTAACTATAACGCTCTGATCATAGTCAGACCAACATTGCTACGACCCGTATTCGCACCGACAC”, 2.16 ± 0.074.
With “ACATTTGTTGATACAACCATAAAATGATAATTACACCCATAAATTGATAATTATCACACCCATAAATTGATATTGCCTCTGATCAACCATAAAATGATAATTACATAGTCAGACCAAGCACCGACAC” the figure was 0.401 ± 0.26; with “ACATTTGTTGAGCACACCATAAAATGATAATTACACCCATAAATTGATAATTATCACACCCATAAATTGATATTGCCTCTGATCATAGTCAGACCAACATTGCTACGACCCGTATTCGCACCGACAC”, -1.83 ± 0.7.
Consider “ACATTTGTGGATACAACCATAAAATGATAATTACACCCATAAATTTATTATTATCACACCCAATTTAACTATAACGCTCTGATCATAGTCAGACCAACATTGCTACGACCCGTATTCGCACCGACAC”, for which the “relative integration efficiency (log2)” value amounted to 1.47 ± 0.11.
“ACATTTGTTGATACAACCATAAAGTGATATTTACAACCATAAAGTGATATTTATCACACCCATAAATTGATAATTACTCTGATCATAGTCAGACCAACATTGCTACGACCCGTATTCGCACCGACAC”: the “relative integration efficiency (log2)” value was found to be 0.289 ± 0.082.
With “ACATTTGTTGATACAACCATAAAATGATAATTACACCCATAAATTGATAATTATCACAGGCATAAATTGATATTGCCTCTGATCATAGTCAGACCAACATTGCTACGACCCGTATTCGCACCGACAC” the figure was 0.567 ± 0.2.
As for “ACATTTGTTGATACAACCATAAAATGATAATTACACCCATACCGGGATAATTATCACACCCATAAATTGATATTGCCTCTGATCATAGTCAGACCAACATTGCTACGACCCGTATTCGCACCGACAC”, the figure is -2.1 ± 0.086; as for “ACATTTGTTGATATGTTGACAACCATAAAATGATAATTACACCCATAAATTGATAATTATCACACCCATAAATTGATATTGCCTCTGATCATAGTCAGACCAACATTGCTACGACCCGTATTCGCAC”, -5.78 ± 1.9.
As for “ACATTTGTTGATACAACCATACCCGTCGCCGGCACAAACGCCCGGTCGCCGGCGACACAAACGCCCGGTCGCGGTAAGAGGATCATAGTCAGACCAACATTGCTACGACCCGTATTCGCACCGACAC”, the figure is -4.78 ± 0.59; as for “ACATTTGTTGAGCCAACCATAAAATGATAATTACACCCATAAATTGATAATTATCACACCCATAAATTGATATTGCCTCTGATCATAGTCAGACCAACATTGCTACGACCCGTATTCGCACCGACAC”, -0.934 ± 0.11.
Regarding “ACATTTGTTGATACAACCATAAGTTGATATTTTCAACCATAAAGTGATATTTATCACACCCATAAATTGATATTGCCTCTGATCATAGTCAGACCAACATTGCTACGACCCGTATTCGCACCGACAC”, the “relative integration efficiency (log2)” value was -0.507 ± 0.46.
With “ACATTTGTTGATACAACCATAAAATGATAATTAGAAACCATACGCTGAAATAATCACACCCATAAATTGATATTGCCTCTGATCATAGTCAGACCAACATTGCTACGACCCGTATTCGCACCGACAC” the figure was -1.54 ± 0.65.
With “ACATTTGTTGATACAACCATAAAATGATAATATCACCCATAAATTGATAATATTCACACCCATAAATTGATATTCGCTCTGATCATAGTCAGACCAACATTGCTACGACCCGTATTCGCACCGACAC” the figure was -0.639 ± 0.0008; with “ACATTTGATGATACAACCATATAATGATAATAACACCCATAAAATGATAATTATCACACCCAATTTAACTATAACGCTCTGATCATAGTCAGACCAACATTGCTACGACCCGTATTCGCACCGACAC”, 1.073 ± 0.0088; with “ACATTTGTTGATACACCCATAAATTGATAATTACAACCATATATTGATATCTCTCAGTGGGTATTTAACTATAACGCTCTGATCATAGTCAGACCAACATTGCTACGACCCGTATTCGCACCGACAC”, 2.39 ± 0.18.
Consider “ACATTTGTTGATACAACCATAAAATCATCATTACACCCATAAATTGATAATTATCACACCCCATTTAACTATAACGCTCTGATCATAGTCAGACCAACATTGCTACGACCCGTATTCGCACCGACAC”, for which the “relative integration efficiency (log2)” value was determined as 0.57 ± 0.096.
With “ACATTTGTTGATACACCCATAAATTGATAATTACAACCATAAAATGATAATTATCACAACCATAAAGTGATATTTACTCTGATCATAGTCAGACCAACATTGCTACGACCCGTATTCGCACCGACAC” the figure was -0.912 ± 0.79; with “ACATTTGTTGATACAACCATAAAGTGATATTTACAACCATATATTGATATCTCTCAGTGGGTATTTAACTATAACGCTCTGATCATAGTCAGACCAACATTGCTACGACCCGTATTCGCACCGACAC”, 2.6 ± 0.17; with “ACATTTGTTGATACAACCATAAGTTGATATTTTCAACCATAAGTTGATATTTTTCACACCCATAAATTGATAATTACTCTGATCATAGTCAGACCAACATTGCTACGACCCGTATTCGCACCGACAC”, -0.132 ± 0.17.
On to “ACATTTGTTGATACACCCATAAATTGATAATTACAACCATAAAGTGATATTTATCACAACCATAAAGTGATATTTACTCTGATCATAGTCAGACCAACATTGCTACGACCCGTATTCGCACCGACAC”, for which the “relative integration efficiency (log2)” value was -0.828 ± 0.015.
For the sequence “ACATTGGTGGATACAACCATAAAATGATAATTACACCCATAAATTGATCATTATCACACCCAATTTAACTATAACGCTCTGATCATAGTCAGACCAACATTGCTACGACCCGTATTCGCACCGACAC”, the “relative integration efficiency (log2)” value was -6.549 ± 0.042.
With “ACATTTGTTGATACAACCATAAAATGATAATTAATAATTATTTATAATCAGCAACTTAACCACAAAACACCCATAAATTGATAATTAACAAAAGTGGGTATTTAACTATAACGTGTGAATCGAGTAT” the figure was -1.88 ± 0.39.
With “ACATTTGTTGATACAACCATAAAATGATAATTACACCCATAAATTGATAATTATCACACCCATAAATTGATATTGCCTCAACCATAAAATGATAATTACTGATCATAGTCAGACCAAGCACCGACAC” the figure was -1.08 ± 0.72; with “ACATTTGTTGATACAACCATAAAATGATAATTACACCCATAAATTGATAATTCGACCACCCATAAATTGATATTGCCTCTGATCATAGTCAGACCAACATTGCTACGACCCGTATTCGCACCGACAC”, 0.317 ± 0.33; with “ACATTTGTAGAAAAAACCATACGTTGATTTTACGAAACCATACGCTGAAATAATCACACCCATAAATTGATATTGCCTCTGATCATAGTCAGACCAACATTGCTACGACCCGTATTCGCACCGACAC”, -5.68 ± 1.4.
With “ACATTTGTTGATACAACCATAAAATGATAATTACTCTGATCATAGTCAGACCAACATTGCTACGACCCGTATTCGCACCACCCATAAATTGATAATTATCACACCCATAAATTGATATTGCCGACAC” the figure was -0.66 ± 0.24; with “ACATTTGTTGATACAACCATAAAATCATAATTACACCCATAAATTGATAATTATCCCACCCCATTTAACTATAACGCTCTGATCATAGTCAGACCAACATTGCTACGACCCGTATTCGCACCGACAC”, 1.23 ± 0.046.
